According to the supplement of paper PMC10567573:

B1: ADAMTS4 (parent)
chain: SFRKFRYGYNNVVTIPAGATHILV

Variants of: B1
Assay: protein stability index of a GFP-peptide fusion (GPS, HEK-293T) (PSI 1-6); higher = more stable
Settings: c terminus: a fixed tail appended
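Also: lentivirally expressed fusions sorted by FACS into six bins by GFP to DsRed ratio, PSI derived from sequencing read proportions per bin multiplied by bin number.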

Protein stability index of substitutions, site by site:
N11: L 1.53, V 2.57, P 2.59, C 2.42, D 2.92, E 2.07, K 1.61, Q 1.56, W 1.9, H 3.34, Y 1.19, A 3.51, F 1.71, I 2.04, R 1.57, M 2.27, G 2.89, S 2.94, T 2.59
N10: L 4.32, T 2.18, E 1.56, Y 2.02, I 3.13, H 1.84, P 1.86, F 2.9, C 2.65, Q 1.94, M 2.49, W 1.6, G 1.34, V 1.81, K 1.81, D 3.41, S 1.99, R 2.36
I15: N 1.57, C 2.03, P 1.52, Q 1.4, V 1.5, L 2.3, D 2.35, H 2.01, W 1.86, E 2.16, Y 2.11, K 2.41, R 1.44, S 2.48, T 2.26, G 1.4, A 2.17, M 2.28, F 1.55
T14: K 3.9, R 1.93, Q 2.2, C 1.81, D 3.24, M 3, H 2.92, G 1.33, F 2.74, V 2.61, A 1.42, Y 2.27, I 2.36, N 3.6, P 1.6, W 3.53, L 2.38, S 2.65, E 2.79
Y9: S 1.78, W 3.46, D 2.86, F 1.72, C 1.55, M 1.9, R 2.46, N 2.14, L 2.75, H 2.36, I 2.46, T 2.05, Q 2.01, G 3.68, K 2.07, V 1.65, E 1.71, P 1.76
V13: S 1.82, K 1.97, G 2.1, A 3.18, L 3.1, F 2.6, E 2.73, T 2.11, D 2.74, H 1.74, I 2.07, Y 1.49, Q 1.8, P 2.12, M 1.9, N 2.04, R 3.77, W 3.05, C 2.92
V12: F 1.71, C 2.95, N 1.87, R 1.7, E 2.4, Q 1.26, L 2.58, P 2.13, D 3.98, H 2.33, T 3.03, Y 2.88, A 2.25, K 2.34, G 3.44, I 3.16, W 2.09, S 2.08, M 2.29
P16: I 2.63, T 1.36, H 2.4, F 2.57, K 2.19, W 2.05, C 2.46, D 3.51, A 2.65, M 2.59, S 2.5, V 1.87, G 2.36, L 1.81, R 1.76, Q 2.25, Y 2.49, E 2.83
A17: C 2.36, M 1.51, P 1.98, H 1.78, D 1.64, I 1.86, S 1.78, L 2.31, W 2.46, N 1.78, E 1.61, R 2, G 1.95, T 1.97, V 1.24, K 1.57, Q 1.33, F 1.96
